{"source": "patent US20260209789A1", "about": "“TRIGGER-INDUCIBLE MRNA CIRCULARIZATION” (WESTLAKE UNIVERSITY, priority 2022, published 2026)", "molecules": {"B1": {"name": "(Coh2)3-NSP3: bipartite STIF regulator (protein)", "chain": "MVVVEIGKVTGSVGTTVEIPVYFRGVPSKGIANCDFVFRYDPNVLEIIGIDPGDIIVDPNPTKSFDTAIYPDRKIIVFLFAEDSGTGAYAITKDGVFAKIRATVKSSAPGYITFDEVGGFADNDLVEQKVSFIDGGVNVASGSGGGGDVASVVVEIGKVTGSVGTTVEIPVYFRGVPSKGIANCDFVFRYDPNVLEIIGIDPGDIIVDPNPTKSFDTAIYPDRKIIVFLFAEDSGTGAYAITKDGVFAKIRATVKSSAPGYITFDEVGGFADNDLVEQKVSFIDGGVNVASGSGGGGDVASVVVEIGKVTGSVGTTVEIPVYFRGVPSKGIANCDFVFRYDPNVLEIIGIDPGDIIVDPNPTKSFDTAIYPDRKIIVFLFAEDSGTGAYAITKDGVFAKIRATVKSSAPGYITFDEVGGFADNDLVEQKVSFIDGGVNVASGSGGGGDVASMLKMESTQQMASSIINTSFEAAVVAATSTLELMGIQYDYNEVYTRVKSKFDYVMDDSGVKNNLLGKAATIDQALNGKFGSAARNRNWMADTRTTARLDEDVNKLRMMLSSKGIDQKMRVLNACFNVKRVPGKSSSIIKCTRLMRDKIERGEVEVDDSFVEEKMEVDTIDWKSRYEQLEKRFESLKQRVNEKYTSWVQKAKKVNENMYSLQNVISQQQSQIADLQNYCNKLEVDLQNKISSLVSSVEWYLKSMELPDEIKTDIEQQLNSIDVINPINAIDDFESLIRNIILDYDRIFLMFKGLMRQCNYEYTYE"}, "B2": {"name": "NSP3: rotaviral non-structural protein 3 (protein)", "chain": "LKMESTQQMASSIINTSFEAAVVAATSTLELMGIQYDYNEVYTRVKSKFDYVMDDSGVKNNLLGKAATIDQALNGKFGSAARNRNWMADTRTTARLDEDVNKLRMMLSSKGIDQKMRVLNACFNVKRVPGKSSSIIKCTRLMRDKIERGEVEVDDSFVEEKMEVDTIDWKSRYEQLEKRFESLKQRVNEKYTSWVQKAKKVNENMYSLQNVISQQQSQIADLQNYCNKLEVDLQNKISSLVSSVEWYLKSMELPDEIKTDIEQQLNSIDVINPINAIDDFESLIRNIILDYDRIFLMFKGLMRQCNYEYTYE"}, "B3": {"name": "(scFv162)3-NSP3: bipartite STIF regulator (protein)", "chain": "MAEVQVQQSGAELVRSGASVKLSCTASGFNIKDYYMHWVKQRPEQGLEWIGWIDPANGNTKYDPKFQGKATITADTSSNTAYLQLSSLTSEDTAVYYCARWDWYFDVWGAGTTVTVSSGGGGSGGGGSGGGGSVFASGSGGGGDVASMAEVQVQQSGAELVRSGASVKLSCTASGFNIKDYYMHWVKQRPEQGLEWIGWIDPANGNTKYDPKFQGKATITADTSSNTAYLQLSSLTSEDTAVYYCARWDWYFDVWGAGTTVTVSSGGGGSGGGGSGGGGSVFASGSGGGGDVASMAEVQVQQSGAELVRSGASVKLSCTASGFNIKDYYMHWVKQRPEQGLEWIGWIDPANGNTKYDPKFQGKATITADTSSNTAYLQLSSLTSEDTAVYYCARWDWYFDVWGAGTTVTVSSGGGGSGGGGSGGGGSVFASGSGGGGDVASMLKMESTQQMASSIINTSFEAAVVAATSTLELMGIQYDYNEVYTRVKSKFDYVMDDSGVKNNLLGKAATIDQALNGKFGSAARNRNWMADTRTTARLDEDVNKLRMMLSSKGIDQKMRVLNACFNVKRVPGKSSSIIKCTRLMRDKIERGEVEVDDSFVEEKMEVDTIDWKSRYEQLEKRFESLKQRVNEKYTSWVQKAKKVNENMYSLQNVISQQQSQIADLQNYCNKLEVDLQNKISSLVSSVEWYLKSMELPDEIKTDIEQQLNSIDVINPINAIDDFESLIRNIILDYDRIFLMFKGLMRQCNYEYTYE"}, "B4": {"name": "(GNCR)3-NSP3: trigger-inducible STIF regulator (protein)", "chain": "MDIEKLCKKAEEEAKEAQEKADELRQRHPDSQAAEDAEDLANLAVAAVLTACLLAQEHPNADIAKLCIKAASEAAEAASKAAELAQRHPDSQAARDAIKLASQAARAVILAIMLAAENPNADIAKLCIKAASEAAEAASKAAELAQRHPDSQAARDAIKLASQAAEAVERAIWLAAENPNADIAKKCIKAASEAAEEASKAAEEAQRHPDSQKARDEIKEASQKAEEVKERCKSASGSGGGGDVASDIEKLCKKAEEEAKEAQEKADELRQRHPDSQAAEDAEDLANLAVAAVLTACLLAQEHPNADIAKLCIKAASEAAEAASKAAELAQRHPDSQAARDAIKLASQAARAVILAIMLAAENPNADIAKLCIKAASEAAEAASKAAELAQRHPDSQAARDAIKLASQAAEAVERAIWLAAENPNADIAKKCIKAASEAAEEASKAAEEAQRHPDSQKARDEIKEASQKAEEVKERCKSASGSGGGGDVASDIEKLCKKAEEEAKEAQEKADELRQRHPDSQAAEDAEDLANLAVAAVLTACLLAQEHPNADIAKLCIKAASEAAEAASKAAELAQRHPDSQAARDAIKLASQAARAVILAIMLAAENPNADIAKLCIKAASEAAEAASKAAELAQRHPDSQAARDAIKLASQAAEAVERAIWLAAENPNADIAKKCIKAASEAAEEASKAAEEAQRHPDSQKARDEIKEASQKAEEVKERCKSASGSGGGGDVASMLKMESTQQMASSIINTSFEAAVVAATSTLELMGIQYDYNEVYTRVKSKFDYVMDDSGVKNNLLGKAATIDQALNGKFGSAARNRNWMADTRTTARLDEDVNKLRMMLSSKGIDQKMRVLNACFNVKRVPGKSSSIIKCTRLMRDKIERGEVEVDDSFVEEKMEVDTIDWKSRYEQLEKRFESLKQRVNEKYTSWVQKAKKVNENMYSLQNVISQQQSQIADLQNYCNKLEVDLQNKISSLVSSVEWYLKSMELPDEIKTDIEQQLNSIDVINPINAIDDFESLIRNIILDYDRIFLMFKGLMRQCNYEYTYE"}, "B5": {"name": "(DocS)3-NSP3: bipartite STIF regulator (protein)", "chain": "MSTKLYGDVNDDGKVNSTDAVALKRYVLRSGISINTDNADLNEDGRVNSTDLGILKRYILKEIDTLPYKNASGSGGGGDVASMSTKLYGDVNDDGKVNSTDAVALKRYVLRSGISINTDNADLNEDGRVNSTDLGILKRYILKEIDTLPYKNASGSGGGGDVASMSTKLYGDVNDDGKVNSTDAVALKRYVLRSGISINTDNADLNEDGRVNSTDLGILKRYILKEIDTLPYKNASGSGGGGDVASMLKMESTQQMASSIINTSFEAAVVAATSTLELMGIQYDYNEVYTRVKSKFDYVMDDSGVKNNLLGKAATIDQALNGKFGSAARNRNWMADTRTTARLDEDVNKLRMMLSSKGIDQKMRVLNACFNVKRVPGKSSSIIKCTRLMRDKIERGEVEVDDSFVEEKMEVDTIDWKSRYEQLEKRFESLKQRVNEKYTSWVQKAKKVNENMYSLQNVISQQQSQIADLQNYCNKLEVDLQNKISSLVSSVEWYLKSMELPDEIKTDIEQQLNSIDVINPINAIDDFESLIRNIILDYDRIFLMFKGLMRQCNYEYTYE"}, "B6": {"name": "CCmut3-NSP3: bipartite STIF regulator (protein)", "chain": "MVDPVGFAEAWKAQFPDSEPPRMELRSVGDIEQELERAEARIRRNEQRVNQERFRMIYLETLLAKEKKSYDRASGSGGGGDVASMLKMESTQQMASSIINTSFEAAVVAATSTLELMGIQYDYNEVYTRVKSKFDYVMDDSGVKNNLLGKAATIDQALNGKFGSAARNRNWMADTRTTARLDEDVNKLRMMLSSKGIDQKMRVLNACFNVKRVPGKSSSIIKCTRLMRDKIERGEVEVDDSFVEEKMEVDTIDWKSRYEQLEKRFESLKQRVNEKYTSWVQKAKKVNENMYSLQNVISQQQSQIADLQNYCNKLEVDLQNKISSLVSSVEWYLKSMELPDEIKTDIEQQLNSIDVINPINAIDDFESLIRNIILDYDRIFLMFKGLMRQCNYEYTYE"}}, "key": {"(DocS)3": {"biological_target": "T1, (DocS)3 (Acetivibrio thermocellus, UniProt A3DH67)", "T1 sequence (A3DH67 with tags, fused parts or gaps)": "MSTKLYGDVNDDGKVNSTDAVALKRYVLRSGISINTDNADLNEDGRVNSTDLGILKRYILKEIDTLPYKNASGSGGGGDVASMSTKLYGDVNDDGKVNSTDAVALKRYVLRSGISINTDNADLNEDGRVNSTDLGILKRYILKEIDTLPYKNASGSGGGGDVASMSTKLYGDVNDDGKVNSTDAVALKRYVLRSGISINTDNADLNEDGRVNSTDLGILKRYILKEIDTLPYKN", "assay": "Coh2/DocS-based STIF protein sensor for cytosolic (DocS)3", "settings": "different amounts of pSL244, 48 h"}, "endogenous RNA (GAPDH)": {"test_system": "endogenous RNA (GAPDH)", "assay": "RIP-qPCR: endogenous RNA binding of PABP- and NSP3-fusion proteins", "set-up": "species or system human", "settings": "3×FLAG-tagged L7Ae-NSP3 vs PABP-L7Ae, 48 h", "excerpt": "RNA immunoprecipitation (RIP)-qPCR."}, "nNS3": {"test_system": "nNS3", "settings": "different amounts of overexpressed nNS3, 48 h"}, "GNCR: NS3a system": {"test_system": "GNCR: NS3a system", "assay": "Grazoprevir-inducible SEAP translation in HEK-293 cells (fold-change, dose-dependence, kinetics vs transcriptional switch)", "settings": "three tandem GNCR and NS3a repeats", "description": "Optimization of an L7Ae-based grazoprevir-inducible gene switch. (A) Translational regulation by grazoprevir-dependent STIF association. […] (B) Translational regulation by different grazoprevir-dependent NSP3-fusion proteins. […] (C) Translational regulation by different grazoprevir-dependent L7Ae-fusion proteins.\nOptimized L7Ae- and MCP-based grazoprevir-inducible gene switch in mammalian cells. (A) Optimized grazoprevir-inducible regulation of SEAP translation. […] (B, C) Dose-dependent grazoprevir-inducible SEAP expression.\nComparative analysis of gene switches based on STIF-based translation and state-of-the-art transcription-centered designs. (A) Kinetics of grazoprevir-inducible SEAP expression. […] (B) Endpoint performance of grazoprevir-induced translational and transcriptional gene switch switches."}, "[1]": {"test_system": "STIF-specific target gene mRNA", "assay": "Translational regulation by constitutive bipartite STIF reconstitution (SEAP, NanoLuc) in HEK-293 cells", "type": "cell-based, human", "settings": "48 h", "excerpt": "FIG. 8. Translational regulation by spontaneous assembly of bipartite STIFs. (A) Translational regulation through constitutive STIF reconstitution. […] Transfection of pcDNA3.1 (+) instead of NSP3-fusion proteins was used as a negative control. […] (B) Compatibility of STIF-mediated translational regulation with split-complementation approaches. […] For (−) conditions, pcDNA3.1 (+) was transfected instead of expression vectors.\nFIG. 9. Translational regulation through constitutive Coh2/DocS-mediated STIF reconstitution. (A) Site-specific translational activation by eIFBP overexpression. HEK-293 cells were (co-) transfected with an expression vector for SEAP-mRNA containing 24 tandem C/D-box-(left panel, pSL355) or MS2-box repeats in the 3′-UTR (right panel, pSL468), constitutive expression vectors for L7Ae (left) or MCP (right) fused to Coh2 (L7Ae-Coh2, pSL83; MCP-Coh2, pSL674) or EGFP (L7Ae-EGFP, pSL1078; MCP-EGFP, pSL435) and constitutive expression vectors for various chimeric Coh2-specific DocS-containing eIFBP fusions (PABP-DocS, pSL47; DocS-eIF4G, pSL87; DocS-eIF4E, pLZ312; DocS-NSP3, pSL66; DocS-VPg, pLZ311). Transfection of pcDNA3.1 (+) instead of DocS- or MCP-expressing vectors was used as a negative control. […] SEAP (left) and NanoLuc levels in culture supernatants (right) were quantified at 48 h post-transfection. […]"}, "BCR-ABL": {"test_system": "BCR-ABL", "sequence (as listed by the source)": "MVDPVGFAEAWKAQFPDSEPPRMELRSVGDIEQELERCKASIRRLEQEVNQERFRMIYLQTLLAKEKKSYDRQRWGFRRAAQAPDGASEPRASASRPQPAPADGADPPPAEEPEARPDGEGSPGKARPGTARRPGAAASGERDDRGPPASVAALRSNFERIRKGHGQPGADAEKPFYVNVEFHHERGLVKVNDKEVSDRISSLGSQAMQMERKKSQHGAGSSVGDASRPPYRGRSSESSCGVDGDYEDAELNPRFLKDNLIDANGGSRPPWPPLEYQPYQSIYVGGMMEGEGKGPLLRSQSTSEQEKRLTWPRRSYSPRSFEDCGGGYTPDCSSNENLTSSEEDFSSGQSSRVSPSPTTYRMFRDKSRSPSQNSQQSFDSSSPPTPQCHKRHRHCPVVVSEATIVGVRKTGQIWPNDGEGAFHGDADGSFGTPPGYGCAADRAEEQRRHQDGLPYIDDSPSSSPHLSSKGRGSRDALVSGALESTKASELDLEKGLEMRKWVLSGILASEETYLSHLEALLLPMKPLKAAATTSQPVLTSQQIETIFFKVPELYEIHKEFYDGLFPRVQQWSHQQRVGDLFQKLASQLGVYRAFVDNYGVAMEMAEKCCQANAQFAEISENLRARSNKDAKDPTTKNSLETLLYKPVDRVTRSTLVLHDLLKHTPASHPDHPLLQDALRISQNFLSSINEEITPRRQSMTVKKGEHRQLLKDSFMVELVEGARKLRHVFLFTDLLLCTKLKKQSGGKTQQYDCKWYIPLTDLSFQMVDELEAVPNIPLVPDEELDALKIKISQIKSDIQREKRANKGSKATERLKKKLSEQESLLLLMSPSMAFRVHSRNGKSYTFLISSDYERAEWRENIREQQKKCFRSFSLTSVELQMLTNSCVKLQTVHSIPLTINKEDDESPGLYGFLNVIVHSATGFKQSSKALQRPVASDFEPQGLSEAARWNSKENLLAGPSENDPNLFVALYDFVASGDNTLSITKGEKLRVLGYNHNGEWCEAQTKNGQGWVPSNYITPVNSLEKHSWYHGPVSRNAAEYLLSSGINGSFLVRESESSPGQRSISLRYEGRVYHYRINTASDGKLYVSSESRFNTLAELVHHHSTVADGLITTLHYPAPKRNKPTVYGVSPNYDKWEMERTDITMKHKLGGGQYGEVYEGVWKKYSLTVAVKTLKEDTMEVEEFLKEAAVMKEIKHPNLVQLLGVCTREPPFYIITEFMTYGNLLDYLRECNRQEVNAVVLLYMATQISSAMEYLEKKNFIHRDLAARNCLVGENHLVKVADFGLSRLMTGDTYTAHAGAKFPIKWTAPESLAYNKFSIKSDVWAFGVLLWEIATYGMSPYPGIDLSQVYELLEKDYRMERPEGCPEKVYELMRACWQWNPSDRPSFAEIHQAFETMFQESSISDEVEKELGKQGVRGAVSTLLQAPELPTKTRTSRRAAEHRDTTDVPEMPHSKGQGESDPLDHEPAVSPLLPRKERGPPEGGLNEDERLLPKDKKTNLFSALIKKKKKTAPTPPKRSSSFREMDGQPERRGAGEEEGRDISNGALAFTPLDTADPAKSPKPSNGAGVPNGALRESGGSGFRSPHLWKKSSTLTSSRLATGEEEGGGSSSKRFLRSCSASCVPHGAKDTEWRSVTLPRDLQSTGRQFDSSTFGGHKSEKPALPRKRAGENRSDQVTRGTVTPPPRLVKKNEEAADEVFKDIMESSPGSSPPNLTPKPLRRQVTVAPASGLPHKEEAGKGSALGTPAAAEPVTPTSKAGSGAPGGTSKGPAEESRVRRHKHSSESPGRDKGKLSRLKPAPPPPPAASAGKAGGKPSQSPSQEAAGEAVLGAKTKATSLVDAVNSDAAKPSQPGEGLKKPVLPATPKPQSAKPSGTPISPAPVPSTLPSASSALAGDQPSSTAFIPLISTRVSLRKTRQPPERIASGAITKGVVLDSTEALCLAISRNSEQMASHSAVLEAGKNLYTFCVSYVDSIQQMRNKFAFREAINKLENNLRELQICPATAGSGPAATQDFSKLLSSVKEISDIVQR", "assay": "Co-immunoprecipitation: BCR-ABL-mediated association of STIF components", "type": "binding, human", "settings": "HEK-293 cells, 48 h"}}, "data": [{"molecule": "B1", "values": [{"measurement": "detection of cytosolic (DocS)3 (SEAP)", "setting": "(DocS)3", "value": "in a dose-dependent manner"}]}, {"molecule": "B2", "values": [{"measurement": "non-specific binding to endogenous RNA (GAPDH RNA IP/input)", "setting": "endogenous RNA (GAPDH)", "value": "much less non-specific binding to endogenous RNA than PABP"}]}, {"molecule": "B3", "values": [{"measurement": "activation of translation of L7Ae-specific target mRNA (SEAP)", "setting": "nNS3", "value": "in a strict nNS3-dependent manner"}]}, {"molecule": "B4", "values": [{"measurement": "regulation performance (fold-change, dose-dependence, activation kinetics)", "setting": "GNCR: NS3a system", "value": "best regulation performance"}]}, {"molecule": "B5", "values": [{"measurement": "target gene translation by spontaneous STIF assembly (SEAP)", "setting": "[1]", "value": "modular and effective translational regulation"}]}, {"molecule": "B6", "values": [{"measurement": "assembly of STIF components upon BCR-ABL overexpression (co-IP)", "setting": "BCR-ABL", "value": "triggers assembly"}]}]}
